# B1: Biotin-Cys-AKAP5c_(ILVF->SA) (domain or fragment)
# chain: CVAEETKPKDTELSQESDFKENGITEEKSKSEESKRMEPIAIIITDTEISEFDVTKSKNVPKQASASAENEQVGVFANDNGFEDRTSEQYETASAETASSLVKNAAQSSAEQSANEMASDDNKINNLLQ
# modifications: biotin (EZ-Link Maleimide-PEG2-Biotin) on the unique added N-terminal Cys
# Biological target: Calcineurin (human PPP3CA / PPP3R1 heterodimer) (human, UniProt Q08209 1-521; P63098 1-170)
# Assay: SPR; apparent, steady-state fit
binder,measurement,value
B1,Kd,550 nM
